From publication PMC2861366 (Biochemistry, 2010) come the findings set out here.

Sequences and labels used below:
B4: E. coli PriA helicase (enzyme, UniProt P17888 1-732, looked up)
chain: MPVAHVALPVPLPRTFDYLLPEGMTVKAGCRVRVPFGKQQERIGIVVSVSDASELPLNELKAVVEVLDSEPVFTHSVWRLLLWAADYYHHPIGDVLFHALPILLRQGRPAANAPMWYWFATEQGQAVDLNSLKRSPKQQQALAALRQGKIWRDQVATLEFNDAALQALRKKGLCDLASETPEFSDWRTNYAVSGERLRLNTEQATAVGAIHSAADTFSAWLLAGVTGSGKTEVYLSVLENVLAQGKQALVMVPEIGLTPQTIARFRERFNAPVEVLHSGLNDSERLSAWLKAKNGEAAIVIGTRSALFTPFKNLGVIVIDEEHDSSYKQQEGWRYHARDLAVYRAHSEQIPIILGSATPALETLCNVQQKKYRLLRLTRRAGNARPAIQHVLDLKGQKVQAGLAPALITRMRQHLQADNQVILFLNRRGFAPALLCHDCGWIAECPRCDHYYTLHQAQHHLRCHHCDSQRPVPRQCPSCGSTHLVPVGLGTEQLEQTLAPLFPGVPISRIDRDTTSRKGALEQQLAEVHRGGARILIGTQMLAKGHHFPDVTLVALLDVDGALFSADFRSAERFAQLYTQVAGRAGRAGKQGEVVLQTHHPEHPLLQTLLYKGYDAFAEQALAERRMMQLPPWTSHVIVRAEDHNNQHAPLFLQQLRNLILSSPLADEKLWVLGPVPALAPKRGGRWRWQILLQHPSRVRLQHIINGTLALINTIPDSRKVKWVLDVDPIEG

Experiment [1] addresses T1, χ subunit of DNA polymerase III holoenzyme (E. coli, UniProt P28905 1-147). As to the kind of experiment: ITC.
The target in experiment [2] is B4. As to the kind of experiment: ITC.
In experiment [3] the target is B4. Description: ITC. This is another data set of the same source.
Experiment [4] deals with T1, χ subunit of DNA polymerase III …. As to the kind of experiment: ITC. The source holds these as a separate data set.
Experiment [5] shares this target. Description: ITC. The source holds these as a separate data set.
In experiment [6] the target is B4. Description: ITC. The source holds these as a separate data set.
Experiment [7] deals with B4. Description: ITC. The source holds these as a separate data set.
Experiment [8] addresses B4. Description: ITC. The source holds these as a separate data set.
Experiment [9] addresses T1, χ subunit of DNA polymerase III …. As to the kind of experiment: ITC. The source holds these as a separate data set.
Experiment [10] addresses B4. Description: ITC. This is another data set of the same source.
Experiment [11] deals with E. coli single stranded DNA binding (SSB) protein (E. coli, UniProt P0AGE0 1-178). Description: AUC.

Values joined by “and” are separate entries in the source; they are usually repeats but may differ in a detail not shown here. Identical values can stand only once. Like-named read-outs stand apart in the source and are kept apart here.

T1 sequence (P28905 whole entry): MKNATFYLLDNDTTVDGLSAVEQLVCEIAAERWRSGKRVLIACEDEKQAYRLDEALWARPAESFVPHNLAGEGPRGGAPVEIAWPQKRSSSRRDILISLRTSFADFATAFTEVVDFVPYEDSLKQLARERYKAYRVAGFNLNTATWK
E. coli single stranded DNA binding (SSB) protein, sequence (P0AGE0 whole entry): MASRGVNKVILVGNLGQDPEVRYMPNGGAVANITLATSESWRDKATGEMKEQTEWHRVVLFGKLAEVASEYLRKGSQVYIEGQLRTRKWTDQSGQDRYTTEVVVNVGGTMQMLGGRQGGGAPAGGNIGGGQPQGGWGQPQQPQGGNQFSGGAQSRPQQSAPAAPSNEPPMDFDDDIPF

B1: P9, synthetic peptide of the last 9 amino acids of the SSB C-terminus (peptide)
peptide: MDFDDDIPF
Consider B1, for which the Ka in experiment [1] was found to be 800000 M⁻¹; in the experiment with E. coli PriA helicase [2] it was 2e+06 M⁻¹; in the experiment with E. coli PriA helicase [3] it was 180000 M⁻¹; in experiment [4], 1.6e+06 M⁻¹. For the same molecule, the dH in experiment [1] is -8.2 ± 0.4 kcal/mol; with E. coli PriA helicase [2] it was -6.7 ± 0.3 kcal/mol; with E. coli PriA helicase [3], -17.3 ± 0.6 kcal/mol; in [4] it was -7.9 ± 0.4 kcal/mol. The “stoichiometry N” value was found to be 0.92 ± 0.04 in experiment [1], 0.89 ± 0.05 with E. coli PriA helicase [2], 0.81 ± 0.12 with E. coli PriA helicase [3] and 1 ± 0.1 in experiment [4].

B2: WP9, modified P9 peptide containing a Trp residue on the N terminal side (peptide)
peptide: WMDFDDDIPF
As to B2, the Ka in experiment [5] was 1.6e+06 M⁻¹; in the experiment with E. coli PriA helicase [6] it was 3.4e+06 M⁻¹; in the experiment with E. coli PriA helicase [7], 410000 M⁻¹ and 404000 M⁻¹; in the experiment with E. coli PriA helicase [8] it was 225000 M⁻¹; in [9], 300000 M⁻¹; with E. coli PriA helicase [3], 230000 M⁻¹. The Ka in [4] was determined as 1.2e+06 M⁻¹; with E. coli PriA helicase [10], 1.6e+06 M⁻¹. The dH is -17.6 ± 0.2 kcal/mol with E. coli PriA helicase [6]; -13.9 kcal/mol and -14.4 kcal/mol with E. coli PriA helicase [7]; -13.7 ± 0.2 kcal/mol with E. coli PriA helicase [8]; -9.2 ± 0.4 kcal/mol in experiment [9]; -13 ± 1.3 kcal/mol with E. coli PriA helicase [3]; -8 ± 0.3 kcal/mol in [4]. Also, the dH with E. coli PriA helicase [10] is -14.5 ± 0.5 kcal/mol. The “stoichiometry N” value with E. coli PriA helicase [7] was found to be 0.91 ± 0.11; with E. coli PriA helicase [8] it was 1.01 ± 0.1; in experiment [9], 0.96 ± 0.03; in the experiment with E. coli PriA helicase [3], 1.1 ± 0.1; in experiment [4] it was 1.02 ± 0.03; in the experiment with E. coli PriA helicase [10], 0.95 ± 0.02.

B3: P15, synthetic peptide of the last 15 amino acids of the SSB C-terminus (peptide)
peptide: PSNEPPMDFDDDIPF
Consider B3, for which the Ka in experiment [1] is 800000 M⁻¹; in the experiment with E. coli PriA helicase [2], 1.6e+06 M⁻¹; with E. coli PriA helicase [3], 360000 M⁻¹; in experiment [4], 1.5e+06 M⁻¹; with E. coli PriA helicase [10], 2.7e+06 M⁻¹. For the same molecule, the dH in experiment [1] was -7.7 ± 0.4 kcal/mol; with E. coli PriA helicase [2], -7 ± 0.5 kcal/mol; with E. coli PriA helicase [3], -14 ± 0.6 kcal/mol; in experiment [4], -9.5 ± 0.3 kcal/mol; in the experiment with E. coli PriA helicase [10] it was -20.7 ± 0.8 kcal/mol. The “stoichiometry N” value in [1] was found to be 0.88 ± 0.04; with E. coli PriA helicase [2] it was 1.03 ± 0.06; with E. coli PriA helicase [3], 0.92 ± 0.03; in experiment [4], 0.91 ± 0.02; with E. coli PriA helicase [10], 0.9 ± 0.02.

On to B4, for which the “stoichiometry N” value in experiment [11] is no less than 3.
